Reference: patent US20250057951A1, “DISCERNIBLE CELL SURFACE PROTEIN VARIANTS OF CD117 FOR USE IN CELL THERAPY” (UNIVERSITÄT BASEL, priority 2021, published 2025)
Changes are numbered by the printed parent chain. In names and notes the source's numbering stands. Entries after “also recorded” stand apart in the source; their conditions may differ.

Assays:
antibody Refmab #1 [1] = experiment: Octet screen: binding of CD117 D1-2-3 variants to captured Refmab #1; details: nm shift at end of association, top analyte concentration (500 nM)
Method: (§1) A more sophisticated analysis of binding to the elected variants was performed with antibody Refmab #1. Binding of Refmab #1 to wt and variants (analyte) was measured in an Octet system RED96e or R8 at 25° C. with shaking at 1,000 rpm using 1× kinetic buffer (Sartorius, PN: 18-1105). First, the elected variants were screened for their ability to bind Refmab #1 using three different concentrations of analytes. Antibody Refmab #1 was captured by Anti-Human Fc capture biosensor (AHC) (Sartorius, PN: 18-5060) for 300 s at 0.5 to 1 μg/mL. As an analyte, human CD117 wt and variants, containing only domains 1, 2 and 3 (CD117 D1-2-3), was titrated at 500 nM, 50 nM and 5 nM. Association and dissociation of the analyte to Refmab #1 was monitored for 300 s and 900 s, respectively. Reference subtraction was performed against buffer only wells. AHC tips were regenerated using 10 mM Gly-HCl pH 1.7. Data were analyzed using the Octet Data Analysis software HT 12.0. Data were fitted (when possible) to a 1:1 binding model. Kinetic rates ka and […] globally fitted. Binding level of the elected variants were compared to wild type and are shown as percent in FIG. 7. For this qualitative analysis, the binding level of the top analyte concentration at end of the association step was used.

antibody Refmab #1 [2] = experiment: Octet titration, steady state KD of CD117 D1-2-3 variants to Refmab #1; assay type: binding; details: for Kd: 7 concentrations 2000-5 nM, steady state, two individual experiments
Method: To further characterize binding of Refmab #1 to CD117 D1-2-3 variants E73K, E73L, E73R, E73Y, D121H, D121K, S123K and S123F, the analytes were titrated at 7 different concentrations (from 2000 nM to 5 nM). Antibody Refmab #1 was captured by AHC biosensors for 300 s at 0.5 to 1 μg/mL. Association and dissociation to Refmab #1 was extended to 600 s and 1000 s, respectively. Steady state analysis was performed.

TF-1 cells = experiment: SCF-dependent proliferation, SCF titration on TF-1 cells with CD117 variants (CellTiter-Glo); assay type: cell-based, human; details: for EC50 Average: average of two experiments; for EC50 Experiment #1 / EC50 Experiment #2: titration of SCF, 3 days, TF-1 cells with the CD117 variant
Method: In another experiment, SCF-dependent proliferation of variants E73K, E73Y, D121K, S123F and S123K was compared against wildtype CD117. TF-1 cells were seeded at a cell concentration of 150 000 cells/ml in sterile, white cell culture treated plates with transparent bottom in RPMI+GlutaMax+10% FCS. Cells were treated with a titration of SCF. After 3 days of incubation a CellTiter-Glo 2.0 assay (Promega) was performed, luminescence was read in a luminometer (Envision plate reader) and EC50's was determined. Two different experiments with triplicates in each experiment were performed.

Refmab #1 = Refmab #1 titration on engineered TF-1 cells (flow cytometry); assay type: binding; details: 5-0.00015 μg/mL antibody; 4° C.
Method: Binding of Refmab #1 was assessed in a flow cytometry assay. TF-1 cells were seeded at a cell concentration of 1,000,000 cells/ml in FACS Buffer (PBS+2% FCS+1 mM EDTA). After a Fc blocking using 1:20 diluted TruStain (BioLegend, #422302) in FACS buffer for 15 minutes at 4° C., cells were washed twice with FACS buffer. Subsequently, a SR-1 titration was added to the cells using 5-0.00015 μg/mL antibody for 30 minutes at 4° C. on a plate shaker. Cells were washed twice with FACS buffer and a secondary labelled antibody (IgG (H+L) Cross-Adsorbed Goat anti-Human, Alexa Fluor® 488, Invitrogen, A11013) was added to the cells for 30 minutes at 4° C. on a plate shaker. Cells were washed twice with FACS buffer, before adding 1:100 diluted solution of 7AAD staining (cell viability) in FACS buffer for a couple of minutes and analyzing the cells using the Novocyte Quanteon (Agilent).

CD117 = experiment: Gene editing of CD117 in TF-1 cells, loss of SR-1 binding by FACS; assay type: cell-based, human; details: FACS 7 days after electroporation with Cas9, crRNA/tracrRNA or sgRNA and HDR template
Method: Gene editing of CD117 was performed in TF-1 cells using HDR. 12 different crRNAs were tested, six of them targeting amino acid residue E73 (Table 3), and six of them targeting amino acid residues 120-123 (Table 3).
Binding of antibody SR-1 to TF-1 cells was measured by FACS 7 days after electroporation with Cas9 protein, crRNA/tracrRNA or sgRNA and HDR template (Table 4).

SCF = target: T1, SCF (Homo sapiens, UniProt P21583); experiment: Octet: binding of CD117 D1-2-3 variants to SCF; details: CD117 D1-2-3 constructs; for KD increase of SCF binding compared to wild type CD117: steady state
T1 construct: purchased Acros Biosystems SCF-H82E1
Method: SCF binding is one function of CD117. SCF binding is important for the transmission of functional signals by CD117. Binding of the elected variants to SCF was measured on an Octet system RED96e or R8 at 25° C. with shaking at 1000 rpm using 1× Kinetic Buffer (Sartorius, PN: 18-1105). […] Domain 1, 2, 3 comprise the binding site for SCF. Domains 4 and 5 were used as a negative, non-binding control.
CD117 D1-2-3 wt and variants thereof are titrated with different concentrations from 1000 to 5 nM. Association was monitored for 300 s and dissociation for 600 s. Binding to human CD117 domain 4 and 5 (CD117 D4-5) was performed under the same conditions as non-binding control. Reference subtraction was performed against buffer only wells. Biosensors were not regenerated and a new set of SA biosensors was used for each analyte. Data were analyzed using the Octet Data Analysis software HT 12.0. Steady state data analysis was performed due to the fast on/off nature of the interaction.

Refmab #3 = experiment: Octet: binding of CD117 variants to Refmab #3; details: qualitative Octet analysis
Method: as §1
A similar experiment to that in Example 7 was performed, but utilizing Refmab's #2 and #3.

Biotinylated Avitag-hSCF = target: T2, Biotinylated Avitag-hSCF (human, UniProt P21583 26-190, limits assumed, biotinylated Avitag); experiment: BLI (Octet), steady state: biotinylated SCF on streptavidin biosensor, CD117 D1-2-3 variant as analyte; KD relative to WT
T2 construct: Bought reagent; also called hSCF (Acros Biosystems SCF-H82E1)
Method: Association was monitored for 300 s and dissociation for 600 s. […] Reference subtraction was performed against buffer only wells. Biosensors were not regenerated and a new set of SA biosensors was used for each analyte. Data were analyzed using the Octet Data Analysis software HT 12.0. Steady state data analysis was performed due to the fast on/off nature of the interaction.

human wild-type CD117 = human wild-type CD117 (human, UniProt P10721 26-976); experiment: cell-based or functional assay

T1 sequence (P21583 26-273): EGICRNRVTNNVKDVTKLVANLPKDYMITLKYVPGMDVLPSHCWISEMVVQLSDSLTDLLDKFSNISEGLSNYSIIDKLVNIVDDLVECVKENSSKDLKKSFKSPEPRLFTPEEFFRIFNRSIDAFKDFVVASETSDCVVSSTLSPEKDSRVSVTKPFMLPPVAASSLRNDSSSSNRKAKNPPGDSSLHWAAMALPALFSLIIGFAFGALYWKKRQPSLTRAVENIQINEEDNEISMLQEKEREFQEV
Chain of antibody Refmab #1 (as listed by the source, one chain of several): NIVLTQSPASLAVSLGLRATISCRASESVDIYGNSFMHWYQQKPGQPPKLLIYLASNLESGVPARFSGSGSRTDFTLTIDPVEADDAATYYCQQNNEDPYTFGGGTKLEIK
Chain of Refmab #3 (as listed by the source): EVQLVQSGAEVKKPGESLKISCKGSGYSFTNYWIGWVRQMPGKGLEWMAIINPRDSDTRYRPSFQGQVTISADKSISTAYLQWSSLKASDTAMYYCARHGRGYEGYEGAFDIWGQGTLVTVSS
Chain of Refmab #3 (as listed by the source): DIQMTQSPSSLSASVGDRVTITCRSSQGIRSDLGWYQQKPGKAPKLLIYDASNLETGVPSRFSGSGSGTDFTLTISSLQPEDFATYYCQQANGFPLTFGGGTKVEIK
Chain of Refmab #1 (as listed by the source, one chain of several): as the sequence (as listed by the source, one chain of several) above
T2 sequence (P21583 26-190 limits assumed): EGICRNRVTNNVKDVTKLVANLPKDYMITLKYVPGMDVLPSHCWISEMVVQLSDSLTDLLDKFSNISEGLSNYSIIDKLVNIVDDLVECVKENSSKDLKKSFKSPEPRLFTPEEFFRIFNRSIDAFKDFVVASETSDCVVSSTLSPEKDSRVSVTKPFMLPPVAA

## E73Y: variant of human CD117 with substitution E73Y
Antibody Refmab #1 [1]
  binding to Refmab #1 compared to wild type: particular strong decrease in binding
Antibody Refmab #1 [2]
  Kd: 691 nM
Antibody Refmab #1 [2]; KD variant vs wild type
  change of KD compared to wild type CD117: around 700 fold
TF-1 cells
  EC50 Average: 4.01 ± 0.37 ng/mL
  EC50 Experiment #1: 4.37 ng/mL
  EC50 Experiment #2: 3.64 ng/mL
Refmab #1
  Binding of Refmab #1 to TF-1 cells expressing the CD117 variant: completely abolished

## KIT_120_123_2: crRNA CTTCTTTCCCATACAAGGAG, SEQ ID NO: 10, targets residues 120-123 of CD117 (chemistry not given here)
CD117
  KnockOut Efficiency (loss of binding of SR-1 compared to wild type cells): 63.1%

## KIT_E73_6: crRNA TAAGCAGAATGAATGGATCA, SEQ ID NO: 8, targets E73 of CD117 (chemistry not given here)
CD117
  KnockOut Efficiency (loss of binding of SR-1 compared to wild type cells): 60.5%

## KIT_120_123_5: crRNA CATACAAGGAGCGGTCAACA, SEQ ID NO: 13, targets residues 120-123 of CD117 (chemistry not given here)
CD117
  KnockOut Efficiency (loss of binding of SR-1 compared to wild type cells): 53.8%

## wild type CD117: wild type human CD117 (SEQ ID No. 1); recombinant D1-2-3 construct or expressed in TF-1 cells [reference compound]
Antibody Refmab #1 [2]
  Kd: 1 nM
TF-1 cells
  EC50 Average: 4.18 ± 0.04 ng/mL
  EC50 Experiment #1: 4.14 ng/mL
  EC50 Experiment #2: 4.22 ng/mL
Refmab #1
  Binding of Refmab #1 to TF-1 cells expressing the CD117 variant: bound

B1: S123V: variant of human CD117 with substitution S123V (protein)
chain: QPSVSPGEPSPPSIHPGKSDLIVRVGDEIRLLCTDPGFVKWTFEILDETNENKQNEWITEKAEATNTGKYTCTNKHGLSNSIYVFVRDPAKLFLVDRVLYGKEDNDTLVRCPLTDPEVTNYSLKGCQGKPLPKDLRFIPDPKAGIMIKSVKRAYHRLCLHCSVDQEGKSVLSEKFILKVRPAFKAVPVVSVSKASYLLREGEEFTVTCTIKDVSSSVYSTWKRENSQTKLQEKYNSWHHGDFNYERQATLTISSARVNDSGVFMCYANNTFGSANVTTTLEVVDKG
Antibody Refmab #1 [1]
  binding to Refmab #1 compared to wild type: strong decrease in binding
SCF
  binding to SCF: binding to SCF, albeit to a slightly lower degree
  KD increase of SCF binding compared to wild type CD117: less than three-fold; also recorded: less than four-fold

B2: K127L: variant of human CD117 with substitution K127L (protein)
chain: B1 chain with V98S, K102L
SCF
  binding to SCF: binding to SCF, albeit to a slightly lower degree

B3: Y259P: variant of human CD117 with substitution Y259P (protein)
chain: B1 chain with V98S, Y234P
SCF
  KD increase of SCF binding compared to wild type CD117: less than three-fold; also recorded: less than four-fold
Refmab #3
  binding to Refmab #3 compared to wild type CD117: strong decrease in binding

B4: S261E: variant of human CD117 with substitution S261E (protein)
chain: B1 chain with V98S, S236E
Refmab #3
  binding to Refmab #3 compared to wild type CD117: complete loss of binding

B5: S261Q: variant of human CD117 with substitution S261Q (protein)
chain: B1 chain with V98S, S236Q
Refmab #3
  binding to Refmab #3 compared to wild type CD117: complete loss of binding

B6: Y259E: variant of human CD117 with substitution Y259E (protein)
chain: B1 chain with V98S, Y234E
SCF
  binding to SCF: binding to SCF, albeit to a slightly lower degree
  KD increase of SCF binding compared to wild type CD117: less than three-fold; also recorded: less than four-fold

B7: Y259A: variant of human CD117 with substitution Y259A (protein)
chain: B1 chain with V98S, Y234A
Refmab #3
  binding to Refmab #3 compared to wild type CD117: strong decrease in binding

B8: Y259G (receptor)
extracellular domains 1, 2 and 3: QPSVSPGEPSPPSIHPGKSDLIVRVGDEIRLLCTDPGFVKWTFEILDETNENKQNEWITEKAEATNTGKYTCTNKHGLSNSIYVFVRDPAKLFLVDRSLYGKEDNDTLVRCPLTDPEVTNYSLKGCQGKPLPKDLRFIPDPKAGIMIKSVKRAYHRLCLHCSVDQEGKSVLSEKFILKVRPAFKAVPVVSVSKASYLLREGEEFTVTCTIKDVSSSVYSTWKRENSQTKLQEKGNSWHHGDFNYERQATLTISSARVNDSGVFMCYANNTFGSANVTTTLEVVD
notes: not in the list MOLECULES; also called human CD117 D1-2-3 variant Y259G
Refmab #3
  binding to Refmab #3 compared to wild type CD117: strong decrease in binding
Biotinylated Avitag-hSCF
  binding result: binds

B9: Refmab #1-Ernie (antibody, V domains shown)
VH: QVQLQQPGAELVKPGASVKMSCKASGYTFTSYNMHWVKQTPGQGLEWIGVIYSGNGDTSYNQKFKGKATLTADKSSSTAYMQINSLTSEDSAVYYCARERDTRFGNWGQGTLVTVSA
VL: EIVLTQSPSSLSASVGDRVTITCRASESVDIYGESFMHWYQQKPGKAPKLLIYLASNLESGVPSRFSGSGSGTDFTLTISSLQPEDFATYYCQQNNEEPYTFGQGTKLEIKR
Human wild-type CD117
  IC50 in a SCF-dependent proliferation assay on HSPC's: 5.21 ng/mL
  IC50 in a SCF-dependent proliferation assay on TF-1 cells: 17.6 ng/mL

B10: Refmab #1-Bert (antibody, V domains shown)
VH: B9 VH
VL: B9 VL with N96K
Human wild-type CD117
  IC50 in a SCF-dependent proliferation assay on HSPC's: 31.3 ng/mL
  IC50 in a SCF-dependent proliferation assay on TF-1 cells: 44.1 ng/mL
